Experimental data reported in the DeepSol protein solubility set.

test: soluble on expression in E. coli; label from the status in PepcDB or PDB records

Row | Sequence | soluble on expression in E. coli
1 | MIDMVVLTKEKIIEIIEEKTGMSREKIEEEIRRIMEEDPHLSEQGAAALLAERLGIDLIEREETSLMKISDLYPGMDPREVNIIGRVLKKYPVREYTKKDGSIGRVASLVIYDDSGRARVVLWDGKVAEYYNKIEVGDVIKVLDAQVRESLSGLPELHINFRARIILNPEDPRVDSIPPLEEVRIATYTRKKIGDIEPGDRFIEIRGTIAKVYRVLTYDACPECKKKVDYDPGTGVWICPEHGEVEPIKMTILDFGLDDGTGYIRVTLFGDDAEELLGVSSEEIAEKIKELENSGLTTKEAARKLAEEEFYKIIGKEIVVRGNVIEDRFLGLILRASSWEEVDYRKEIENIKEELEKLGVMLEHHHHHH | not soluble
2 | MELTLHEARVIGCLLEKEVTTPEQYPLSLNALTLACNQKTSREPVLELTEAQVQDALDSLNKKRLISEQSGFGSRVVKYKHRFCNTEFSELQLSTAAVAIVCLLLLRGPQTPGELRTRSNRLHDFKDVLEVEACIKQLMERDKPVLTQLPREPGKRECRYTELFSQGSEQVSATSLSADSPSADSNSLNAQDRQQLEARVTQLEGQVAELKDKLESLIASLS | soluble
3 | MLCDSLPTASRTAAAILNLAQREDVTAEALAQLIQTDPALTGRILRFANAPAQGTRRPVASVIDAIDLVGLPAVRQFALSLSLIDAHREGRCEAFDYAAYWQKSLARAVALQSITAQASTVAPKEAFTLGLLADVGRLALATAWPEEYSECLRKADGEALIALERERFATDHDELTRMLLTDWGFPQVFIDALQLSQQDEIRDEGRTGRFARQLALAQHIADHRLAEEPRRAALSPLLRAEARRCGLGDEDLARLLADPPADWLDWTRTIGLPGDAPTGGAEPSRPPPQTDEKLHVLLADDDPIMLARLSRQLEADGHHVASRRDGETALAYALEHQPEMVITDWHMKPMNGLELCRALRESALGGNVYIVMLTASESEDALVEAFGAGIDDYVIKPPSVRVLKARIRAGQRIITLHKKLARERKEIERYSSELAAANRRLELMAHTDQLTGLPNRRYAMDRLEREWAQARTFDRPLSIMMLDLDWFKSINDSLGHDAGDQALVHAARVMRETVRTSDVVCRMGGEEFLIIIPDTAGPAAIQTAERVRSAVEQQQPAKLKLSRPLTASIGVADSTSAPSLKDLLLKADNALYQVKQNGRNGVRYAGLAAALEHHHHHH | soluble
4 | MKPAYFISDLHLSEKQPELTALLLRFLRSSAAGQARAIYILGDLFDFWVGDDEVSELNTSVAREIRKLSDKGVAVFFVRGNRDFLIGQDFCRQAGMTLLPDYSVLDLFGCKTLICHGDTLCTDDRAYQRFRKIVHRKRLQKLFLMLPLKWRTRLATKIRRVSKMEKQVKPADIMDVNAAFTARQVRAFGAERLIHGHTHREHIHHENGFTRIVLGDWHNDYASILRVDGDGAVFVPLEKY | not soluble
5 | MGSDKIHHHHHHMKINRLTEIIVILLNKKLVTAKELADRFEVSTRTIYRDIETLSMSGVPVYMTKGKGGGISLIEEYSIDKAILSKKDKESLIVALKTLQATKYPEINSVVNKIGSIFGEQNFSNWIEIDFTEWGSNFNEDDKFTKIKEAILRRNTINFNYVNSLSSQTNRTVEPLKLMYKSKTWYLYGFCKLKDDFRIFRISRIRNLSIKDEVFSRKIIEEVCLNDSKVIKENTITLKLRFKEKMLFRVFDDFNKDLITKNEDDTYDVITEFPIGEWIYGYILSFGDNVEVLEPKDVRDNVITRLRELSKIYSL | not soluble
6 | MDASIEKRPRTRLSPQKRKLQLMEIALEVFAKRGIGRGGHADIAEIAQVSVATVFNYFPTREDLVDDVLNFVVRQYSNFLTDHIDLDLDVKTNLQTLCKEMVKLAMTDCHWLKVWFEWSASTRDEVWPLFVSTNRTNQLLIRNMFMKAMERGELCEKHDVDNMASLFHGIFYSIFLQVNRLGEQEAVYKLADSYLNMLCIYKN | soluble
7 | GKSLKVSSPRPGLLERLSATIQRNLPGHSMLDRQLTTDGKKNQESRFSFSMIKDRIVHFAVSTKLGSVRDSASKHGGEVTFKFAQTKGAFLDQIMKHQDTSGGVCESISAHWISAHAKGESVFNQLYVGGQKGQFHIDSLVSIKQLQMDGLDPYAEQSQITESWLRENGIQPRSPLEVSGETGSKGTKDLLNAILDTGDKGSGYKKISFEGQMAGHTVAAYVDDQKGVTFFDPNFGEFSFPDKTSFSNWFSQDFWSKSMYNKEIGLGQNFYVSNFEP | not soluble
8 | MLNNLLQQATSPNGRARQYAIEHTVELTNLIPPTVSYESGGHTLIIGPTMLIERITEPLSSMASITLLSVDGEPGTQSNLYYADTVEISGFLGAFSVNVENHGKRVNLAQAAIGGNSFDIVLDMSLNGLMSEEVPVPGYFPVGRGYPKLADALEEIPTLMGTFDKPKYFRLDPDLCAHSSRGVKGCERCVDACPAGALSSEGSEQTGHRIQINPYLCQGVGTCATACPTEAIHYALPNPTDTQKFIERLLANYHQAGGEKPIVLICSSRHESYNVMALKVLPDNVIPVVVEELPSVGIDSWFAALVNGATQVLFAASRHMPPTIQRILNQEMSMAQSLLTHLGLPKETIDILYLESLREGMPVLCEQPLGLKLGDLIGNKRERLFTALDALAETLNAQPSVQPLSISAPYGTIECQTSDCTLCMSCVAVCPTRALHLAGDSPALRFIEQDCVQCGLCVKACPEQVLSATPQLNWNKAARQGVVTLHQEEPAKCLRCHKPFAPQSMITMLQTKLRGHSHFATPEALNRIAMCEDCRVVDMFEAMAHDPEQQLKY | not soluble
9 | MRYWLMKSEPSEVSIDDLAARPGQTVPWDGVRNYQARNFMRNQMQPGDLVFFYHSSCPEPGIAGVVEVSRLAYPDETQFDSASKYFDPKSTRENPRWFNVEVRFLRKTRLLSLRELRSYPELAGMRILQKGNRLSITPVDPSEWKFIEAKLQSLEHHHHHH | not soluble
10 | MKYPQVWDLDTFFKGGSQSSDFQHFVKETEELVDKLVASTSAKMTLAQLVNELVNVQKVMQRLRHGAAFVSCLKAQNVKDEHAFQWQGKLNELQAKLQNIWVELEATFGRMEDGEWQELLNHPQLSDITFSLNERRQAAAEKLAPEQEKLVAQLAVDGYHAWGEVYNQAVGRMEIPFEEDGETKRLSP | not soluble
11 | MAHHHHHHSLALIVKIGGSIQKDEKDYELIVKKIQDFSKKSDKIIVVTSAIKNVTNELISATSNTDNSPNIVTEIYERHIKLLSKLADGKEFENSFKDISRLSDELFRVAWSIRVLDEVTPRVRDYILSFGERMATLLLSAILRSNGIEAEGIITPPFLTDENYGEANVIEDLSKNEIANILENAKANVIVLPGFIGRTREGRYTTLGRGGSDYTATLLGKLVGVREVRLVTEVPGIMTGDPKKFENAKTISRLSLEEAIELSQLGAKRLHPRTFDPVFGSDMKVIVESLYEDGFTIINGECQNNDGLKGISLLDNAKLITVESTKIVGKIGSAARITNEAKEAGVNIISISQPASETTIQLVVDSLSANRLLSKLEEIRGTLVKDIEVNDINIVGIVGCGIKKKEISTKVLSIASSYDPLAISRGISNVSMTFIVNKDEGEKLAKELHKVIVSGEG | soluble
12 | RRQHQHLLESLVHSTAKQQGDFTKTAELATELLCQNLAVSLVSIWIFSADQGTQSLVAQFGSMALQDTYRPSLLHTVPRYLNELKNYRHIDAGNTLIDPRLTELVDSYFIPRQILSSLDVGIRINGHLEGVLCIERAQVTHHWHDSEIHLACQMADQLALTLATKHAYDKEERLSLFRCAIEQSRQMSM | not soluble
13 | MSLESGELIGACEFMKDRLYFATLRNRPKSTVNTHYFSIDEELVYENFYADFGPLNLAMVYRYCCKLNKKLKSYSLSRKKIVHYTCFDQRKRANAAFLIGAYAVIYLKKTPEEAYRALLSGSNPPYLPFRDASFGNCTYNLTILDCLQGIRKGLQHGFFDFETFDVDEYEHYERVENGDFNWIVPGKFLAFSGPHPKSKIENGYPLHAPEAYFPYFKKHNVTAVVRLNKKIYEAKRFTDAGFEHYDLFFIDGSTPSDNIVRRFLNICENTEGAIAVHCKAGLGRTGTLIACYVMKHYRFTHAEIIAWIRICRPGSIIGPQQHFLEEKQASLWVQGDIFRSKLKNRPSSEGEGHHHHHH | soluble
14 | MGSDKIHHHHHHMKFLNVIFKGHSISELIQEVIYVFIGYFFLMISYCTPRNKKKWVFGNKKIFKDNTKYLFIYMQEQHPEIQTIWITSSRRLVKRLRALSYSAYYKYSLKGLYHSLTAGVYVSTVNSNHINFFTSGRVFNVNLWHGISLKAMVDNKAVPADRSFLSRVCMPYVYEQYGLFFSTTPTIDDQYLRFFRFDPQVLYHGMSPRCSFMMMDHERLLRYIEEKEDPLMLDIIHTSRKYNKVFVYMPTWRINYGTHFMDYAFPDLYALNKAFSKINAILLLKLHPSMTYDAFKYKDLKHIYYIDANIDLYPILPFTDIMISDYSSIWYDYLLLPNKGVIHYDFDVDSYAKNEFGFFRDYKTFTPGVHASDFKQLLATIESSSSLQISEERRTWILDEMWGKGRSTNNEDLIKEICKRVEQVL | not soluble
15 | MEDTAEENNESIDDQPSTSTATDPNQTRETEKEKGDDEMFRLLQATDEILENKAKSMNLSSLNVRSILHHLIKYPSTIDVLLGIRENDDLPSVRNMRSRKKPDDSGASSTVNTPKKFGALRIEDRGPKSFLDLEYEEDDEYDDDYIEENDTSTRNKLNAGSEEDEENDDEEEIEDEGEDEDDEEQDELEEDGEHEITGSEACTSGQNDTMHALLFDETSEDVQNEEDYVLNMTLNDTRAESVAPIPTLDNVDDDGFYRDFVTGINRTEKDNDNLEVLDTEDDPDDEDYNVCADDGLNVEDWDETRQDKTTQIPRHELKALMIDTLLAEKEIPLNAFPEEAINGEEHRKSQKVKDAEVYERINTSISSSSESCSLLKDSLATFRPQELQQLNMQLEQHVQLLTQLVVTCHHDVNLSHVRNSSQLMMNELDDIRQQKIYPTVFDVRNLDAAIESCHDINAFDAVDESFLKYAENTEGYGGIALRPEAAVVLSRSNAIRYPALLPSRQPFFIETPIPFLSEEDLMLAVALLQFAHLPRRGEKEMIDRYTAIQQHCLPARSSYKIRTHLKSMRRSDKNPIHQIMQAAEKGVCKLVLPLKSWQESDTPICQWPPASQPGWYRRFQETFNVTEERKILRKHVSTMVLTPVKNKDRQDQEASEATFESGEEGEDDEFVNMGTAPDGRKIIMGREHIEDLVHQLIKQNEISPSKRRKNPTPMKLSTMIQLEEAEKRIADSQKNSCGGQTISALSNVSGDSNVDNNGTHEKELMPSTSSIDSLESINNQETSKFPRPLPMSDQPTLNTSCHITTTTCSVSYEDVDVGTLKKSYVEITASKYETNSNSCFSYPIPPTPGRRSPDDFDDYFMDLESNSLMWPQTPYAVTDENPQTPRGFSASESSEPIDFSSLGKATSLDTEEIVFQSTSCQRPMGYCSDFGEFSNSSSLPEEIPVPSHQRTPQESAIEDDSSMPGLDMVPLYEEDVEECIIEDIEEEEAPIKQGLVNSRPPLRFKKEVKAGITNLAPSRKRTRIEREAMGSVGLDDEQLHDKQKENIMRKVIEDVNQRLFMHTDTYQRFKEAITDENLTDFEKVTRTIIILANHPELLNLVLLNAPPEAVISDLQCDHNYQSYKVAIEMIMDIERYITAAKLKEPSLKGLFRYIQSFLEDKPNMTDEQATKRFYELFGQDRPLWKKLESRFWCLPYKARPRLENYEYIDLTGLETMSKREKRDWNSIPPRFETVDDIDQVMGSVYRASKNEPPSNLVVKCGEFCIRNDDETYTQLEITERLWTRKDDISLLTSYNEALKTIPNFTVSQMPSLISDLSFGEKSIIARLQYLLTELKSLD | soluble
16 | MQKIKVQDAIGSVLMHDLTQIIPGKTKDARFRKGHVIKEEDIPTLLSMGKEHIFVWDQTPGLIHEDEAAERLAKAVAGPGLSFSETKEGKVNLIAEEDGLIYASEEGIYALNSLEYIILATLHNHRPVKKGQKIAGTRVVPLMIDENVVIEAEGIARRFEEPILQIRPLQSKKVGVVTTGSEVYHGRIQDKFGPVLQRKVAEWGSVLLGQTFADDDVEMIQERIREHIEQGAEMVLVTGGMSVDPDDLTPTAIKGLGGRVDHLWHSCSSRSHAVAGLPGLEHHHHHH | not soluble
17 | RELLMMTPSKELCQVVGNDVLEIEKVSDHQLKLAGITKVGQELRVNIDLHVDDDMIELDTLEQTRKQLTTRLSKHRFKLQLNLNVANC | not soluble
